From patent publication US7740853

Target: mouse low affinity IgE receptor FcεRII (mouse) (UniProt P20693)
Assay: FACS analysis of 0.12A3 cells with the B3B4 antibody

Chain of UniProt P20693 (P20693 whole entry): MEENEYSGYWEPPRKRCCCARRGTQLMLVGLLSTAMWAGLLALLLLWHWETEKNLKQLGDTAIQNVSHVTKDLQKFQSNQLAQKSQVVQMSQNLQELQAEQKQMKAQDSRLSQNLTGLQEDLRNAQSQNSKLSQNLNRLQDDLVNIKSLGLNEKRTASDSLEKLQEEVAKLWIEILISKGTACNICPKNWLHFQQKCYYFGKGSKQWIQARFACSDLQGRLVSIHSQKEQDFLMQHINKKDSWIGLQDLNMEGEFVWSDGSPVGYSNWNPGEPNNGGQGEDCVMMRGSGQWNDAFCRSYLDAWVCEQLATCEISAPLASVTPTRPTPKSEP

Substance: B3B4 antibody against the FcεRII receptor (Pharmigin)
- percent of cells on which the receptor was expressed: 54%
